Measured values taken from publication doi:10.1101/2025.08.29.673013.

Assays:
[1] = target: Full-length human PARP2 isoform 2 (amino acids 1–570) (human) (UniProt Q9UGN5); test: ITC
[2] = target: WGR-CAT construct of PARP2 (aa 81–570) (human) (UniProt Q9UGN5); test: ITC
[3] = target: NTR-WGR construct of PARP2 (aa 1–205) (human) (UniProt Q9UGN5); test: ITC
[4] = target: N-terminal region of PARP2 (NTR; aa 1–80) (human) (UniProt Q9UGN5); test: ITC
[5] = target: Full-length human PARP2 isoform 2 (amino acids 1–570) (human) (UniProt Q9UGN5); test: BLI
[6] = target: Biotinylated SUMO [SUMO: Q12306]; test: BLI

Kd [1]	Kd [2]	Kd [3]	Kd [4]	IC50 [5]	Kd [6]	koff [6]	kon [6]	Substance
45.6 µM	1000 µM	125 µM	201 µM	0.82 µM	–	–	–	Small ubiquitin like modifier (SUMO) (from UniProt Q12306 1-101) (natural protein)
–	–	–	–	–	66.8 µM	0.301 s⁻¹	4500 M⁻¹ s⁻¹	Full-length human PARP2 isoform 2 (amino acids 1–570) (from UniProt Q9UGN5-2 1-570) (enzyme)
